From patent US20240261333A1, “NOVEL TARGETS FOR ENHANCING ANTI-TUMOR IMMUNITY” (THE BROAD INSTITUTE, INC., priority 2021, published 2024) come the findings set out here.

What all share (test): co-IP/MS, anti-FLAG IP of N-FLAG B3GNT2 cell lysate
Assay [1] deals with RPL23A (human) (UniProt P62750).
Assay [2] concerns the target HSD17B12 (human) (UniProt Q53GQ0).
The target of assay [3] is PIP (human) (UniProt P12273).
Assay [4] deals with CKAP4 (human) (UniProt Q07065).
For assay [5], the target named is CAPZB (human) (UniProt P47756).

Sequence of CKAP4 (human) (Q07065 whole entry): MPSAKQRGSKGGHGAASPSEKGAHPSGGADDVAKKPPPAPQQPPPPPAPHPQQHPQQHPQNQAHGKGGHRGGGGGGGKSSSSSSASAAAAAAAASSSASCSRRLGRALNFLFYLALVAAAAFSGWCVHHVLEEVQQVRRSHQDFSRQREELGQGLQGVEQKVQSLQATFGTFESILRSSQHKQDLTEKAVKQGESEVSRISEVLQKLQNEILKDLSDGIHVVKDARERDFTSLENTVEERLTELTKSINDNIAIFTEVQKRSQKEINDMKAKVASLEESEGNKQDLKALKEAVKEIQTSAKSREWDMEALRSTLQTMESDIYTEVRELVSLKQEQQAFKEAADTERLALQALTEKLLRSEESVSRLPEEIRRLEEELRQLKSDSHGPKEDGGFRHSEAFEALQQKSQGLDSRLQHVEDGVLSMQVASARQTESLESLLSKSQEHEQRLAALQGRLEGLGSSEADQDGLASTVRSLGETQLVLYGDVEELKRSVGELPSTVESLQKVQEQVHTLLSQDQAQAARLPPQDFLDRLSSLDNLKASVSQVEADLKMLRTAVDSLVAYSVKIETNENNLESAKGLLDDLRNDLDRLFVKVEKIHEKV
Sequence of PIP (human) (P12273 29-146 limits assumed): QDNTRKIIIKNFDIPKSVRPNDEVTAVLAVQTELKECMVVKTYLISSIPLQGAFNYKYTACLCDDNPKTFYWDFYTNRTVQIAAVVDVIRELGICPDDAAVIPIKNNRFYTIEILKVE
Sequence of HSD17B12 (human) (Q53GQ0 whole entry): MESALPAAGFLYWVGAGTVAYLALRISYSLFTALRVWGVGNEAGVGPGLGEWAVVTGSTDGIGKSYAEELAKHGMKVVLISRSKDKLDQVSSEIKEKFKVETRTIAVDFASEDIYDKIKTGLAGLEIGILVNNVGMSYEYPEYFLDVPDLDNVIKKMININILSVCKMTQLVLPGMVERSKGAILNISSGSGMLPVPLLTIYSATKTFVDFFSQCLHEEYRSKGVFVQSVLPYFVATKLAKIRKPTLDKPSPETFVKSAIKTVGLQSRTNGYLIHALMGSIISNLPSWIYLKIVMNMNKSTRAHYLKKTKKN

For “N-terminal FLAG tagged B3GNT2 (from UniProt Q9NY97 1-397) (enzyme)”, the co-IP mass spectrometry count in assay [1] stood at 6; in assay [2] it was 10; in assay [3], 4; in assay [4], 2; in assay [5] it was 2.
